Assay results as given in patent publication US20200109190A1 (AstraZeneca / MedImmune, published 2020).
Several values for one entry are separate records, joined by “and”; a condition that tells them apart may be missing. Equal values may be shown once. Read-outs that look alike come from different tables or passages of the source.

What was measured:
LukSF [1] = target: T1, LukSF (Staphylococcus aureus); assay: cell-based or functional assay
HlgAB [2] = target: T2, HlgAB (Staphylococcus aureus, UniProt P0A074 30-309); assay: cell-based or functional assay
T2 sequence 1: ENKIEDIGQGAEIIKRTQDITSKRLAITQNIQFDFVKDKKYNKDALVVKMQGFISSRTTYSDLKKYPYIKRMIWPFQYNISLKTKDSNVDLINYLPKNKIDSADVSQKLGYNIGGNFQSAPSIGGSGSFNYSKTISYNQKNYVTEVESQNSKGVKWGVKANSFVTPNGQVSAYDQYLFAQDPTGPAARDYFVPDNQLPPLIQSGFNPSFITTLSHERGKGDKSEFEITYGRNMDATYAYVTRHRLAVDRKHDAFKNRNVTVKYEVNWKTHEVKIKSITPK
T2 sequence 2: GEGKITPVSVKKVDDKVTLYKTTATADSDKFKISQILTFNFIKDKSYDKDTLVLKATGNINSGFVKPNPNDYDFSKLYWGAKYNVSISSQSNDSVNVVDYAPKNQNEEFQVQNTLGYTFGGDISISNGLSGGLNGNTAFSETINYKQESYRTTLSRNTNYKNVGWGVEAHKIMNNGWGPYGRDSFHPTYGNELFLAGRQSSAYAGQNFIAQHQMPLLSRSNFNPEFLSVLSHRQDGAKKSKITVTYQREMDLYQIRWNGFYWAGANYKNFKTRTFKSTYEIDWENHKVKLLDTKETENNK

S. aureus LukF [3] = target: T3, S. aureus LukF (Staphylococcus aureus); assay: method not stated at Table 8; BLI (Octet) is described in Example 4
LukSF [4] = target: T1, LukSF; assay: cell-based or functional assay; remark: listed apart in the source
HlgAB [5] = target: T2, HlgAB; assay: cell-based or functional assay; remark: listed apart in the source
S. aureus HlgB [6] = target: T4, S. aureus HlgB (Staphylococcus aureus, UniProt P0A075 27-325)
T4 sequence: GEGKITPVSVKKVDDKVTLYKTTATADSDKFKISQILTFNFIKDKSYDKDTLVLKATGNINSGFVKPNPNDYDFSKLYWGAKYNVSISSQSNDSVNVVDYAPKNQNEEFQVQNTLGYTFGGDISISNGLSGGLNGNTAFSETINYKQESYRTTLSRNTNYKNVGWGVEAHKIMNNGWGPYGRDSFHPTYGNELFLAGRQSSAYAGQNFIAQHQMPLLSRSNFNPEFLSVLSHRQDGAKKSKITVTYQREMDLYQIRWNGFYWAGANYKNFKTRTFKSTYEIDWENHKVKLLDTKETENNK

S. aureus LukD [7] = target: T5, S. aureus LukD (Staphylococcus aureus, UniProt Q2FXB1 27-327)
T5 sequence: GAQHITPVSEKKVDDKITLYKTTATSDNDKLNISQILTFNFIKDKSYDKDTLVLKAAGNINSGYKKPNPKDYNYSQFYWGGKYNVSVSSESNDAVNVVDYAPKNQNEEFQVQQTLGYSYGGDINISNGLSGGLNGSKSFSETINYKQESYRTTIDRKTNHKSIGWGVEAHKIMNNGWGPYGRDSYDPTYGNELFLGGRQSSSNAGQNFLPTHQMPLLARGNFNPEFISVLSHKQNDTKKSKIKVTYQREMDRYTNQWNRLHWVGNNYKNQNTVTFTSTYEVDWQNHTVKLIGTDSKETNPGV

S. aureus LukF [8] = target: T3, S. aureus LukF
LukSF [9] = target: T1, LukSF; assay: cell-based or functional assay; remark: listed apart in the source
HlgAB [10] = target: T2, HlgAB; assay: cell-based or functional assay; remark: listed apart in the source
S. aureus HlgB [11] = target: T4, S. aureus HlgB; assay: BLI (Octet384), antibody captured on anti-human IgG Fc biosensors, antigen in solution; light-stressed sample
S. aureus LukD [12] = target: T5, S. aureus LukD; assay: as above
S. aureus LukF [13] = target: T3, S. aureus LukF; assay: as above
S. aureus HlgB [14] = target: T4, S. aureus HlgB; assay: BLI (Octet384), antibody captured on anti-human IgG Fc biosensors, antigen in solution; dark sample
S. aureus LukD [15] = target: T5, S. aureus LukD; assay: as above
S. aureus LukF [16] = target: T3, S. aureus LukF; assay: as above
HlgCB = target: T6, HlgCB (Staphylococcus aureus, UniProt Q07227 30-315); assay: cell-based or functional assay
T6 sequence 1: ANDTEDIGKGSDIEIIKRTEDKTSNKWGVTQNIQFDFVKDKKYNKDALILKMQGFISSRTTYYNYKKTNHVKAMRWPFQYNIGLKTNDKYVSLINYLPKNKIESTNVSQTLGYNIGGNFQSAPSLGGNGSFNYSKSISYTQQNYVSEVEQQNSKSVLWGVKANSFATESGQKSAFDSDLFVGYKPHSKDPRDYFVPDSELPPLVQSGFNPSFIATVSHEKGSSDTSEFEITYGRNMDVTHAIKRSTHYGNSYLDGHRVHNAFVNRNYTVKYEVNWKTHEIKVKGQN
T6 sequence 2: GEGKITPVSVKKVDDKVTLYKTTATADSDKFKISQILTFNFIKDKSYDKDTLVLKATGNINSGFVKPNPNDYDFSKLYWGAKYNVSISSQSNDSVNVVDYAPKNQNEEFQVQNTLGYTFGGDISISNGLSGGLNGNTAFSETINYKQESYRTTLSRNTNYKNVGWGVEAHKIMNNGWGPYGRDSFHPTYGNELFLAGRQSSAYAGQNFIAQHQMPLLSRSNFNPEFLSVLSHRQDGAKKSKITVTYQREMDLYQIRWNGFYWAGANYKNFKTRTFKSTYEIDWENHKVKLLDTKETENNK

LukSF [17] = target: T1, LukSF; assay: cell-based or functional assay; remark: listed apart in the source
LukED = LukED (Staphylococcus aureus, UniProt O54081 29-314); assay: cell-based or functional assay

B1: SAN481-YTE (antibody)
heavy: QLQLVESGGGAVQPGRSLKLSCAASGFNFSTYAMHWVRQAPGRGLEWVAVTSFDGSNEYYIDSVKGRFTISRDNTKNTLYLQMTGLRVEDTALYFCARDEYTGGWYSVGYWGQGTLVTVSSASTKGPSVFPLAPSSKSTSGGTAALGCLVKDYFPEPVTVSWNSGALTSGVHTFPAVLQSSGLYSLSSVVTVPSSSLGTQTYICNVNHKPSNTKVDKRVEPKSCDKTHTCPPCPAPELLGGPSVFLFPPKPKDTLYITREPEVTCVVVDVSHEDPEVKFNWYVDGVEVHNAKTKPREEQYNSTYRVVSVLTVLHQDWLNGKEYKCKVSNKALPAPIEKTISKAKGQPREPQVYTLPPSREEMTKNQVSLTCLVKGFYPSDIAVEWESNGQPENNYKTTPPVLDSDGSFFLYSKLTVDKSRWQQGNVFSCSVMHEALHNHYTQKSLSLSPGK
light: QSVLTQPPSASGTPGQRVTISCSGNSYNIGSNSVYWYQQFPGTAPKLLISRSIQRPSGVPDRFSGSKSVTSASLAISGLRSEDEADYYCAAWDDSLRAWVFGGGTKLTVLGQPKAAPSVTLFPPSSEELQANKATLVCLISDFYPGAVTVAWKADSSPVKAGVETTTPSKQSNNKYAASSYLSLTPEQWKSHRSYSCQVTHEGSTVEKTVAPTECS
notes: also called QD1
LukSF [1]
  IC50 (LukSF) HL-60; Dark sample: 0.209 µg/mL
  IC50 (LukSF) HL-60; Light sample: 0.233 µg/mL
HlgAB [2]
  IC50 (HIgAB) HL-60; Dark sample: 0.704 µg/mL
  IC50 (HIgAB) HL-60; Light sample: 0.821 µg/mL
S. aureus LukF [3]
  Kd: 0.0148 nM
LukSF [4]
  IC50 Fold loss vs. WT (LukSF): 0.938 fold
  IC50 for LukSF: 0.15 µg/mL
HlgAB [5]
  IC50 Fold loss vs. WT (HIgAB): 0.95 fold
  IC50 for HIgAB: 0.54 µg/mL
S. aureus HlgB [6]
  Kd: < 0.001 nM
  koff: < 1e-07 s⁻¹
  kon: 240000 M⁻¹ s⁻¹ and 265000 M⁻¹ s⁻¹
S. aureus LukD [7]
  Kd: < 0.001 nM
  koff: < 1e-07 s⁻¹
  kon: 277000 M⁻¹ s⁻¹ and 294000 M⁻¹ s⁻¹
S. aureus LukF [8]
  Kd: 0.232 nM and 0.226 nM
  koff: 6.55e-05 s⁻¹ and 6.47e-05 s⁻¹
  kon: 283000 M⁻¹ s⁻¹ and 287000 M⁻¹ s⁻¹
LukSF [9]
  IC50 (LukSF) HL-60: 0.15 µg/mL
HlgAB [10]
  IC50 (HIgAB) HL-60: 0.54 µg/mL

B2: SAN481-SYT-YTE (antibody, V domains shown)
VH: QLQLVESGGGAVQPGRSLKLSCAASGFTFSTYAMHWVRQAPGRGLEWVAVTSFDGSNEYYIDSVKGRFTISRDNTKNTLYLQMTGLRVEDTALYFCARDEYTGGWYSVGYWGQGTLVTVSS
VL: QSVLTQPPSASGTPGQRVTISCSGSSYNIGSNYVYWYQQFPGTAPKLLISRSIQRPSGVPDRFSGSKSVTSASLAISGLRSEDEADYYCAAWDDSLRAWVFGGGTKLTVLG
notes: also called QD5
LukSF [1]
  IC50 (LukSF) HL-60; Dark sample: 0.163 µg/mL
  IC50 (LukSF) HL-60; Light sample: 0.184 µg/mL
HlgAB [2]
  IC50 (HIgAB) HL-60; Dark sample: 0.576 µg/mL
  IC50 (HIgAB) HL-60; Light sample: 0.645 µg/mL
S. aureus LukF [3]
  Kd: 0.101 nM
LukSF [4]
  IC50 Fold loss vs. WT (LukSF): 1.01 fold
  IC50 for LukSF: 0.162 µg/mL
HlgAB [5]
  IC50 Fold loss vs. WT (HIgAB): 0.951 fold
  IC50 for HIgAB: 0.54 µg/mL
S. aureus HlgB [11]
  Kd: < 0.001 nM
  koff: < 1e-07 s⁻¹
  kon: 244000 M⁻¹ s⁻¹
S. aureus LukD [12]
  Kd: < 0.001 nM
  koff: < 1e-07 s⁻¹
  kon: 263000 M⁻¹ s⁻¹
S. aureus LukF [13]
  Kd: < 0.001 nM
  koff: < 1e-07 s⁻¹
  kon: 257000 M⁻¹ s⁻¹
S. aureus HlgB [14]
  Kd: 0.0191 nM
  koff: 4.88e-06 s⁻¹
  kon: 255000 M⁻¹ s⁻¹
S. aureus LukD [15]
  Kd: < 0.001 nM
  koff: < 1e-07 s⁻¹
  kon: 279000 M⁻¹ s⁻¹
S. aureus LukF [16]
  Kd: 0.101 nM
  koff: 3.69e-05 s⁻¹
  kon: 365000 M⁻¹ s⁻¹
HlgCB
  IC50 (read off the curve): ~2 µg/mL
LukSF [17]
  IC50 (read off the curve): ~0.4 µg/mL
LukED
  IC50 (read off the curve): ~4 µg/mL
LukSF [9]
  IC50 (LukSF) HL-60: 0.16 µg/mL
HlgAB [10]
  IC50 (HIgAB) HL-60: 0.54 µg/mL
